Here are results for one substance from PMC3919806.

In this experiment the target is Lrp4-myc (mouse full length Lrp4) (mouse) (UniProt Q8VI56).
Chain of UniProt Q8VI56 (Q8VI56 21-1905): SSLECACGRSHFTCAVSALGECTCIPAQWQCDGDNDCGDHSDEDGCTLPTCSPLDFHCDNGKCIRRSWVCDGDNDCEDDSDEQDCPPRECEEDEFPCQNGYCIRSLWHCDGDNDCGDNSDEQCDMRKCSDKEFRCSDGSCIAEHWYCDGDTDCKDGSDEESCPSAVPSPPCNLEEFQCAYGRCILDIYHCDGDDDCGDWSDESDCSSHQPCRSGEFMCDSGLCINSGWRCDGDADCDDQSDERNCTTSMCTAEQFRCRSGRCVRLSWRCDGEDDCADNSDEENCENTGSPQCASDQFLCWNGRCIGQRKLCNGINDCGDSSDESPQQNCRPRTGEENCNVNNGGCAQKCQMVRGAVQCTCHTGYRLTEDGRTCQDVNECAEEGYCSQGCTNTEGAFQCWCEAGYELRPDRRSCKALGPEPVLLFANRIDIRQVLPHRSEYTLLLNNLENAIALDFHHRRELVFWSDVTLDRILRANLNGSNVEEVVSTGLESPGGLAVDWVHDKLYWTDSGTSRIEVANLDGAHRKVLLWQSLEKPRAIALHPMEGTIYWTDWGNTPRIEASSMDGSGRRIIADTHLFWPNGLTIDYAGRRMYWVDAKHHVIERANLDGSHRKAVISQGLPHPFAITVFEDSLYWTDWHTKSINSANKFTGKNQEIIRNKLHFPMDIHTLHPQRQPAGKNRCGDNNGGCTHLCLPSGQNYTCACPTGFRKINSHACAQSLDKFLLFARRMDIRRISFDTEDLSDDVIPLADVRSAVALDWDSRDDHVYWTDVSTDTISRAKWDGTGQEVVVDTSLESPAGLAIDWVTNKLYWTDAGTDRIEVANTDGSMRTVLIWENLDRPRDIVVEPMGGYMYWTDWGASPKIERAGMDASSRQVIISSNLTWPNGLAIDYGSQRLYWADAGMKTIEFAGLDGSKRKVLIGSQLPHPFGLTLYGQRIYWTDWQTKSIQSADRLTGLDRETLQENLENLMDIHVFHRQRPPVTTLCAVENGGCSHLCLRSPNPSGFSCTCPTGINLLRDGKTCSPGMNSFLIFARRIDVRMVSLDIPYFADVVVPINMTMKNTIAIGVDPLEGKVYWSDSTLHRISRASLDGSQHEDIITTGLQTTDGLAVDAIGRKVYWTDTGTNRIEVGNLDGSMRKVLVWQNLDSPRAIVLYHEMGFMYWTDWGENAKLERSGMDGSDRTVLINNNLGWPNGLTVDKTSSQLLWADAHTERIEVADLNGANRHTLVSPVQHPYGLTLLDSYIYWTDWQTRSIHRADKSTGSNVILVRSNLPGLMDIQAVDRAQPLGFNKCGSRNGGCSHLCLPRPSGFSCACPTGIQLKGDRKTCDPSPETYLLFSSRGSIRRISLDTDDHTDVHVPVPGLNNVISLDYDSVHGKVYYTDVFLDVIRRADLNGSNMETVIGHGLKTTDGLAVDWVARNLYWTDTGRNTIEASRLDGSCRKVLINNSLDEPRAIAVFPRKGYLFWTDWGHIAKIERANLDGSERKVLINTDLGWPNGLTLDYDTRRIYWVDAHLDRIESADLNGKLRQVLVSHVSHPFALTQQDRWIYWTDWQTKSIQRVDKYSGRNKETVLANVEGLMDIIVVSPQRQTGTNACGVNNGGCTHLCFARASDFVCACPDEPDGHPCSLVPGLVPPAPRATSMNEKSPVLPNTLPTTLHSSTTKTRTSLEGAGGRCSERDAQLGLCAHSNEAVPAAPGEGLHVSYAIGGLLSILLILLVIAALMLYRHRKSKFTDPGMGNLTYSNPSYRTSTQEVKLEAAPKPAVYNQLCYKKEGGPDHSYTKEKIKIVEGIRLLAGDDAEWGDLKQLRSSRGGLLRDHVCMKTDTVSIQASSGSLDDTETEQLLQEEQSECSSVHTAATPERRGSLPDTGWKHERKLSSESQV

With “NT-1654, C-terminal 44 kDa fragment of murine agrin (from UniProt A2ASQ1 1519-1950) (domain or fragment)”, the AChR clustering on differentiated C2C12 myotubes, 16 h (area of AChR clusters normalized to myotube area), EC50 is 440 pM.
